Peptide text beside a SMILES is read from it. * marks the point of attachment. Biotin = O=C1N[C@H]2[C@H](CS[C@H]2CCCCC(=O)*)N1
Experiments:
Type in all cases: binding
[1] = target: T1, PB-domain of ARNO (Homo sapiens, UniProt Q99418); assay: a2N-derived peptide pull-down with GST-PB domain
T1 construct: v) 379-400aa, polybasic (PB) domain; made in house; host or cells: E. coli BL21(DE3)
Method: FIGS. 5A-C are a set of three images of Western blots showing the identification of interaction motif of a2N that is involved in specific binding with the Sec7 domain of ARNO. 5A, The catalytic Sec7 domain of ARNO interacts with two a2N-derived peptides, a2N-01 and a2N-03, in pull-down experiments. The peptide pull-down assay was performed with six a2N-derived interaction peptides immobilized on streptavidin-beads and incubated with purified recombinant GST-only or GST-Sec7 domain. Interacting complexes were eluted and analyzed by Western blotting using monoclonal anti-GST antibodies as described below. The loading controls for GST-only (lane 1) or GST-Sec7 (lane 2) are shown. […] The peptide pull-down assay was performed with peptides a2N-01 and a2N-03 immobilized on streptavidin-beads and incubated with purified recombinant GST-PH domain (5B) or GST-PB domain (5C). Interacting complexes were eluted and analyzed by Western blotting using monoclonal anti-GST antibodies. […]
These a2N-derived peptides were immobilized by an N-terminal biotin-tag, which ensured the same efficiency and equivalent binding to streptavidin-agarose beads. […] After washing beads four times in ice-cold binding buffer, the interacting complexes were eluted by boiling in SDS-PAGE sample buffer for 10 min at 95° C., resolved by SDS-PAGE and analyzed by Western blotting using monoclonal anti-GST antibody. […]

[2] = target: T2, ARNO PH-domain (Homo sapiens, UniProt Q99418); assay: GST pull-down of in vitro translated a2N with ARNO PH-domain; conditions: Western blot anti-a2N
T2 construct: iv) 253-378aa, plekstrin-homology (PH) domain; made in house; host or cells: E. coli BL21(DE3)
T2 sequence (Q99418 253-378): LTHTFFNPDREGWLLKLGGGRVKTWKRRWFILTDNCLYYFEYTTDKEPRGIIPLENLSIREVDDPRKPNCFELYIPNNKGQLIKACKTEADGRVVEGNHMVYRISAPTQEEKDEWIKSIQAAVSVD
Method: (§1) The purified recombinant GST-ARNO(wt) and GST-tagged ARNO domain constructs ([…]) were incubated with 10 μl of in vitro translated 6His-a2N recombinant protein at 4° C. for 2 hours in 500 μl of binding buffer (10 mM HEPES, 1 mM EDTA, 1 mM DTT, 100 mM NaCl, 10% glycerol, 0.1% NP-40) with gentle rotation. Then the interacting recombinant proteins were immobilized on glutathione beads by incubation with 50 μl of 50% glutathione Sepharose 4B slurry for 2 hours at 4° C. The beads were collected by centrifugation and washed 5 times with 500 μl ice-cold binding buffer. Interacting proteins were eluted by boiling in SDS-PAGE sample buffer for 10 min at 95° C., resolved by SDS-PAGE and analyzed by Western blotting using polyclonal anti-a2N antibodies. […]
(§2) To examine the ability of these well-defined and functionally distinct domains of ARNO to interact with a2N1-402, full-length ARNO(wt) and its four domains were cloned separately for bacterial expression of recombinant proteins (FIG. 3). […] Interacting proteins were detected by western blot analysis with a2-specific antibodies as described above.

[3] = target: T3, ARNO PB-domain (Homo sapiens, UniProt Q99418); assay: GST pull-down of in vitro translated a2N with ARNO PB-domain; conditions: GST pull-down with GST- and His-tagged PB-domain construct
T3 construct: v) 379-400aa, polybasic (PB) domain; made in house; host or cells: E. coli BL21(DE3)
Method: as §1, §2

T1 sequence (Q99418 379-400 limits assumed): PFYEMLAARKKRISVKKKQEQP

Molecule: CSCC[C@H](NC(=O)CCCC[C@@H]1SC[C@@H]2NC(=O)N[C@@H]21)C(=O)NCC(=O)N[C@@H](CO)C(=O)N[C@@H](CC(C)C)C(=O)N[C@@H](Cc1ccccc1)C(=O)N[C@@H](CCCNC(=N)N)C(=O)N[C@@H](CO)C(=O)N[C@@H](CCC(=O)O)C(=O)N[C@@H](CO)C(=O)N[C@@H](CCSC)C(=O)N[C@@H](CS)C(=O)N[C@@H](CC(C)C)C(=O)N[C@@H](C)C(=O)N[C@@H](CCC(N)=O)C(=O)N[C@@H](CC(C)C)C(=O)N[C@@H](Cc1ccccc1)C(=O)N[C@@H](CC(C)C)C(=O)N[C@@H](CS)C(=O)O [a2N-01, Bio-MGSLFRSE SMCLAQLFL-Cys] (Biotin-MGSLFRSESMCLAQLFLC-OH; N-terminus and C-terminus assumed)
- interaction with PB-domain of ARNO [1]: does not interact

B1: a2N: recombinant N-terminal cytosolic tail, amino acid residues 1-402 of mouse V-ATPase a2-subunit (protein)
chain: MGSLFRSESMCLAQLFLQSGTAYECLSALGEKGLVQFRDLNQNVSSFQRKFVGEVKRCEELERILVYLVQEITRADIPLPEGEASPPAPPLKHVLEMQEQLQKLEVELREVTKNKEKLRKNLLELVEYTHMLRVTKTFLKRNVEFEPTYEEFPALENDSLLDYSCMQRLGAKLGFVSGLIQQGRVEAFERMLWRACKGYTIVTYAELDECLEDPETGEVIKWYVFLISFWGEQIGHKVKKICDCYHCHIYPYPNTAEERREIQEGLNTRIQDLYTVLHKTEDYLRQVLCKAAESVCSRVVQVRKMKAIYHMLNMCSFDVTNKCLIAEVWCPEVDLPGLRRALEEGSRESGATIPSFMNTIPTKETPPTLIRTNKFTEGFQNIVDAYGVGSYREVNPALFTII
modifications: left off: small tags and cut ends
notes: recombinant N-terminal cytosolic tail, amino acid residues 1-402 of mouse V-ATPase a2-subunit
- interaction of a2N with ARNO PH-domain [2]: weakly
- interaction of a2N with ARNO PB-domain [3]: no interaction

Reference: patent publication US20140162285A1, “Methods of Modulating Vesicular Trafficking” (The General Hospital Corporation, priority 2009, published 2014)
